Laboratory results taken from patent US20150344570A1 (published 2015).

T1: FcγRIIb extracellular domain with C-terminal His tag (human, UniProt P31994 43-217)
T1 construct: extracellular domain; also called 2b; FcgRIIb
T1 sequence (looked up): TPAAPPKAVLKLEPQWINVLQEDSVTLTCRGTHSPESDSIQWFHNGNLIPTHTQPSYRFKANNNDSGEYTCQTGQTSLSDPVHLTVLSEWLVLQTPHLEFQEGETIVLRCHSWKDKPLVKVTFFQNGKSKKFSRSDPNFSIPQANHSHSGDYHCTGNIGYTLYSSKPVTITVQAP


Experiments:
[1] = target: T2, FcγRIIIa extracellular domain with C-terminal His tag (human, UniProt P08637 17-208); assay: SPR, binding relative to GpH7-A5/GpH7-B3/GpL16-k0 = 100
T2 construct: extracellular domain; also called 3a; FcgRIIIa
Protocol: (§1) The heterodimerized antibodies He Abs in which one of the H chains was introduced with an alteration were assayed for their binding activities to each activating FcγR and inhibitory FcγR according to the method described in Example 4. […] The activating FcγRs in FIGS. 26, 27, 28, and 29 are FcγRIa, FcγRIIa (R), FcγRIIa (H), and FcγRIIIa, respectively.
(§2) Analysis of interaction between objective antibody and the FcγR was carried out using Biacore T100 (GE Healthcare). HBS-EP+ (GE Healthcare) was used as the running buffer, and the measurement temperature was set to 25° C. Chips produced by immobilizing the antigen peptide by the amine coupling method to a Series S Sencor Chip CM5 (GE Healthcare), or alternatively, chips produced by allowing preliminarily biotinylated antigen peptides to interact with and immobilize onto a Series S Sensor Chip SA (certified) (GE Healthcare) were used. Antibodies of interest were captured onto an antigen peptide-immobilized chip, and allowed to interact to each FcγR diluted with running buffer. To regenerate and repeatedly use the chip, the antibodies captured on the chip were washed off by reacting 10 mM glycine-HCl, pH 1.5.

[2] = target: T1, FcγRIIb extracellular domain with …; assay: as above
Protocol: as §1, §2

T2 sequence (P08637 17-208): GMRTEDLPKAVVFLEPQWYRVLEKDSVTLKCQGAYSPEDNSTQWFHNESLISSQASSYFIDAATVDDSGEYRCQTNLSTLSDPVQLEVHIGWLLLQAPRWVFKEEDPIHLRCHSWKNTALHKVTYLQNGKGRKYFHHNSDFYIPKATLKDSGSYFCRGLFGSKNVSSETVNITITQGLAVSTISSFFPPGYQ

| He/Con_3a [1] | He/Con_2b [2] | Binder |
| --- | --- | --- |
| 119 % of control | 89.8 % of control | GpH7-A5/GpH7-B3 variant I336_10E/GpL16-k0 (antibody, human IgG1, kappa, also called He Ab) heavy 1: not shown heavy 2: not shown light: DIVMTQSPLSLPVTPGEPASISCQASESLVHSNRNTYLHWYLQKPGQSPQLLIYKVSNRFSGVPDRFSGSGSGTDFTLKISRVEAEDVGVYYCSQNTHVPPTFGQGTKVEIERTVAAPSVFIFPPSDEQLKSGTASVVCLLNNFYPREAKVQWKVDNALQSGNSQESVTEQDSKDSTYSLSSTLTLSKADYEKHKVYACEVTHQGLSSPVTKSFNRGEC |
| 100 % of control | 94.8 % of control | GpH7-A5/GpH7-B3 variant Q295_10E/GpL16-k0 (antibody, human IgG1, kappa, also called He Ab) heavy 1: not shown heavy 2: not shown light: DIVMTQSPLSLPVTPGEPASISCQASESLVHSNRNTYLHWYLQKPGQSPQLLIYKVSNRFSGVPDRFSGSGSGTDFTLKISRVEAEDVGVYYCSQNTHVPPTFGQGTKVEIERTVAAPSVFIFPPSDEQLKSGTASVVCLLNNFYPREAKVQWKVDNALQSGNSQESVTEQDSKDSTYSLSSTLTLSKADYEKHKVYACEVTHQGLSSPVTKSFNRGEC |
| 104 % of control | 78.3 % of control | GpH7-A5/GpH7-B3 variant S324_02A/GpL16-k0 (antibody, human IgG1, kappa, also called He Ab) heavy 1: not shown heavy 2: not shown light: DIVMTQSPLSLPVTPGEPASISCQASESLVHSNRNTYLHWYLQKPGQSPQLLIYKVSNRFSGVPDRFSGSGSGTDFTLKISRVEAEDVGVYYCSQNTHVPPTFGQGTKVEIERTVAAPSVFIFPPSDEQLKSGTASVVCLLNNFYPREAKVQWKVDNALQSGNSQESVTEQDSKDSTYSLSSTLTLSKADYEKHKVYACEVTHQGLSSPVTKSFNRGEC |
| 106 % of control | 79.7 % of control | GpH7-A5/GpH7-B3 variant Q295_02A/GpL16-k0 (antibody, human IgG1, kappa, also called He Ab) heavy 1: not shown heavy 2: not shown light: DIVMTQSPLSLPVTPGEPASISCQASESLVHSNRNTYLHWYLQKPGQSPQLLIYKVSNRFSGVPDRFSGSGSGTDFTLKISRVEAEDVGVYYCSQNTHVPPTFGQGTKVEIERTVAAPSVFIFPPSDEQLKSGTASVVCLLNNFYPREAKVQWKVDNALQSGNSQESVTEQDSKDSTYSLSSTLTLSKADYEKHKVYACEVTHQGLSSPVTKSFNRGEC |
| 113 % of control | 77.9 % of control | GpH7-A5/GpH7-B3 variant S298_14T/GpL16-k0 (antibody, human IgG1, kappa, also called He Ab) heavy 1: not shown heavy 2: not shown light: DIVMTQSPLSLPVTPGEPASISCQASESLVHSNRNTYLHWYLQKPGQSPQLLIYKVSNRFSGVPDRFSGSGSGTDFTLKISRVEAEDVGVYYCSQNTHVPPTFGQGTKVEIERTVAAPSVFIFPPSDEQLKSGTASVVCLLNNFYPREAKVQWKVDNALQSGNSQESVTEQDSKDSTYSLSSTLTLSKADYEKHKVYACEVTHQGLSSPVTKSFNRGEC |
| 121 % of control | 92.5 % of control | GpH7-A5/GpH7-B3 variant K334_01G/GpL16-k0 (antibody, human IgG1, kappa, also called He Ab) heavy 1: not shown heavy 2: not shown light: DIVMTQSPLSLPVTPGEPASISCQASESLVHSNRNTYLHWYLQKPGQSPQLLIYKVSNRFSGVPDRFSGSGSGTDFTLKISRVEAEDVGVYYCSQNTHVPPTFGQGTKVEIERTVAAPSVFIFPPSDEQLKSGTASVVCLLNNFYPREAKVQWKVDNALQSGNSQESVTEQDSKDSTYSLSSTLTLSKADYEKHKVYACEVTHQGLSSPVTKSFNRGEC |
| 115 % of control | 66.8 % of control | GpH7-A5/GpH7-B3 variant Q295_14T/GpL16-k0 (antibody, human IgG1, kappa, also called He Ab) heavy 1: not shown heavy 2: not shown light: DIVMTQSPLSLPVTPGEPASISCQASESLVHSNRNTYLHWYLQKPGQSPQLLIYKVSNRFSGVPDRFSGSGSGTDFTLKISRVEAEDVGVYYCSQNTHVPPTFGQGTKVEIERTVAAPSVFIFPPSDEQLKSGTASVVCLLNNFYPREAKVQWKVDNALQSGNSQESVTEQDSKDSTYSLSSTLTLSKADYEKHKVYACEVTHQGLSSPVTKSFNRGEC |
| 104 % of control | 97.6 % of control | GpH7-A5/GpH7-B3 variant I336_18N/GpL16-k0 (antibody, human IgG1, kappa, also called He Ab) heavy 1: not shown heavy 2: not shown light: DIVMTQSPLSLPVTPGEPASISCQASESLVHSNRNTYLHWYLQKPGQSPQLLIYKVSNRFSGVPDRFSGSGSGTDFTLKISRVEAEDVGVYYCSQNTHVPPTFGQGTKVEIERTVAAPSVFIFPPSDEQLKSGTASVVCLLNNFYPREAKVQWKVDNALQSGNSQESVTEQDSKDSTYSLSSTLTLSKADYEKHKVYACEVTHQGLSSPVTKSFNRGEC |
| 101 % of control | 85.8 % of control | GpH7-A5/GpH7-B3 variant S324_09D/GpL16-k0 (antibody, human IgG1, kappa, also called He Ab) heavy 1: not shown heavy 2: not shown light: DIVMTQSPLSLPVTPGEPASISCQASESLVHSNRNTYLHWYLQKPGQSPQLLIYKVSNRFSGVPDRFSGSGSGTDFTLKISRVEAEDVGVYYCSQNTHVPPTFGQGTKVEIERTVAAPSVFIFPPSDEQLKSGTASVVCLLNNFYPREAKVQWKVDNALQSGNSQESVTEQDSKDSTYSLSSTLTLSKADYEKHKVYACEVTHQGLSSPVTKSFNRGEC |
| 109 % of control | 64.5 % of control | GpH7-A5/GpH7-B3 variant S298_03V/GpL16-k0 (antibody, human IgG1, kappa, also called He Ab) heavy 1: not shown heavy 2: not shown light: DIVMTQSPLSLPVTPGEPASISCQASESLVHSNRNTYLHWYLQKPGQSPQLLIYKVSNRFSGVPDRFSGSGSGTDFTLKISRVEAEDVGVYYCSQNTHVPPTFGQGTKVEIERTVAAPSVFIFPPSDEQLKSGTASVVCLLNNFYPREAKVQWKVDNALQSGNSQESVTEQDSKDSTYSLSSTLTLSKADYEKHKVYACEVTHQGLSSPVTKSFNRGEC |
| 108 % of control | 89.5 % of control | GpH7-A5/GpH7-B3 variant I336_14T/GpL16-k0 (antibody, human IgG1, kappa, also called He Ab) heavy 1: not shown heavy 2: not shown light: DIVMTQSPLSLPVTPGEPASISCQASESLVHSNRNTYLHWYLQKPGQSPQLLIYKVSNRFSGVPDRFSGSGSGTDFTLKISRVEAEDVGVYYCSQNTHVPPTFGQGTKVEIERTVAAPSVFIFPPSDEQLKSGTASVVCLLNNFYPREAKVQWKVDNALQSGNSQESVTEQDSKDSTYSLSSTLTLSKADYEKHKVYACEVTHQGLSSPVTKSFNRGEC |
| 160 % of control | 73.4 % of control | GpH7-A5/GpH7-B3 variant S298_02A/GpL16-k0 (antibody, human IgG1, kappa, also called He Ab; GpH7-A5/GpH7-B3-15-02A/GpL16-k0) heavy 1: not shown heavy 2: not shown light: DIVMTQSPLSLPVTPGEPASISCQASESLVHSNRNTYLHWYLQKPGQSPQLLIYKVSNRFSGVPDRFSGSGSGTDFTLKISRVEAEDVGVYYCSQNTHVPPTFGQGTKVEIERTVAAPSVFIFPPSDEQLKSGTASVVCLLNNFYPREAKVQWKVDNALQSGNSQESVTEQDSKDSTYSLSSTLTLSKADYEKHKVYACEVTHQGLSSPVTKSFNRGEC |
| 102 % of control | 83.7 % of control | GpH7-A5/GpH7-B3 variant I336_13S/GpL16-k0 (antibody, human IgG1, kappa, also called He Ab) heavy 1: not shown heavy 2: not shown light: DIVMTQSPLSLPVTPGEPASISCQASESLVHSNRNTYLHWYLQKPGQSPQLLIYKVSNRFSGVPDRFSGSGSGTDFTLKISRVEAEDVGVYYCSQNTHVPPTFGQGTKVEIERTVAAPSVFIFPPSDEQLKSGTASVVCLLNNFYPREAKVQWKVDNALQSGNSQESVTEQDSKDSTYSLSSTLTLSKADYEKHKVYACEVTHQGLSSPVTKSFNRGEC |
| 160 % of control | 94.8 % of control | GpH7-A5/GpH7-B3 variant K334_09D/GpL16-k0 (antibody, human IgG1, kappa, also called He Ab) heavy 1: not shown heavy 2: not shown light: DIVMTQSPLSLPVTPGEPASISCQASESLVHSNRNTYLHWYLQKPGQSPQLLIYKVSNRFSGVPDRFSGSGSGTDFTLKISRVEAEDVGVYYCSQNTHVPPTFGQGTKVEIERTVAAPSVFIFPPSDEQLKSGTASVVCLLNNFYPREAKVQWKVDNALQSGNSQESVTEQDSKDSTYSLSSTLTLSKADYEKHKVYACEVTHQGLSSPVTKSFNRGEC |
| 105 % of control | 81.1 % of control | GpH7-A5/GpH7-B3 variant S324_01G/GpL16-k0 (antibody, human IgG1, kappa, also called He Ab) heavy 1: not shown heavy 2: not shown light: DIVMTQSPLSLPVTPGEPASISCQASESLVHSNRNTYLHWYLQKPGQSPQLLIYKVSNRFSGVPDRFSGSGSGTDFTLKISRVEAEDVGVYYCSQNTHVPPTFGQGTKVEIERTVAAPSVFIFPPSDEQLKSGTASVVCLLNNFYPREAKVQWKVDNALQSGNSQESVTEQDSKDSTYSLSSTLTLSKADYEKHKVYACEVTHQGLSSPVTKSFNRGEC |
